Source: patent US20110046355A1 (F STAR BIOTECHNOLOGISCHE FORSCHUNGS UND ENTWICKLUNGSGES M B …, published 2011)
Numbering of substitutions follows the chain as printed. Each block holds one binder with its values, some of them ahead of it.

Key:
[1] = molecular target: T1, Human soluble Her-2 (Bender Med Systems, Austria) (human, UniProt P04626 23-652, biotinylated (sulfo-LC-LC-biotin) when used for yeast FACS staining; unlabelled in ELISA and SPR); test: ELISA, human soluble Her-2 coated at 2 ug/ml, Fcab titrated, anti-Fc CH2-HRP detection
T1 construct: extracellular domain; given only as 'human soluble Her-2'; also called recombinant antigen Her2 (Bendermedsystems); Her2-biotin
Description: Human soluble Her-2 (Bender Med Systems, Austria) was coated to plastic at 2 μg/ml. After washing and blocking unspecific binding sites, increasing concentrations of Fcabs were added. To detect Her-2 bound Fcabs, anti-Fc CH2 domain specific monoclonal antibodies which were conjugated to horse radish peroxidase (Serotec) were added.

[2] = molecular target: T2, Her-2 on Her-2 over-expressing human breast cancer cell lines SKBR3 and Calu-3 (human, UniProt P04626 23-1255); test: FACS on Her-2 over-expressing SKBR3 cells, anti-human Fc-PE detection
T2 construct: whole, on cells; also called SKBR3 cells; Calu-3 cells
Description: (§1) Antigen binding was also determined by SPR. Biacore CM5 chips were coated with different amounts of human soluble Her-2 followed by addition of increasing concentrations of Fcabs. The affinity (KD) of the Fcabs was calculated from the resulting binding curves after fitting using the software BiaEval. […] Antigen binding was also assessed by FACS using the Her-2 over-expressing human breast cancer cell lines SKBR3 and Calu-3. 1×10⁵ cells were incubated with increasing concentrations of Fcabs for 60 minutes on ice. Then, unbound antibodies were removed by centrifugation and washing. Cell bound Fcabs were detected by incubation with anti-human Fc specific antibodies conjugated to phycoerythrin (Sigma) for 60 minutes on ice. After washing the cells, the intensity of fluorescence on the cell surface was measured in a FACS Calibur instrument (Beckton Dickinson).

[3] = molecular target: T1, Human soluble Her-2 (Bender Med …); test: assay not stated; told in the yeast display FACS selection and affinity maturation section (biotinylated Her2)
[4] = molecular target: T1, Human soluble Her-2 (Bender Med …); test: SPR, Biacore CM5 chip coated with human soluble Her-2, Fcab as analyte, BiaEval fit
Description: as §1

[5] = molecular target: T2, Her-2 on Her-2 over-expressing human …; test: cell-based or functional assay
wild type Fcab = molecular target: T3, wild type Fcab (human, UniProt P0DOX5 218-449 = IgG part, limits assumed); test: SPR, Fcab (10 ug/ml) captured on Protein A chip (3000 RU), human soluble CD64 at 5 ug/ml as analyte
T3 construct: also called Fcab wt; wtFcab
Description: Association with the neonatal Fc receptor (FcRn) was measured by adding 10 μg/ml Fcab to a Biacore CM5 chip coupled to 5000 response units (RU) of recombinant human FcRn at pH=6.0. The dissociation of Fcab from FcRn was tested at pH=7.4. […] Finally, human soluble CD64 at 5 μg/ml was added.

[6] = molecular target: T4, Fcab wt (non-randomized Fc fragment) expressed on yeast (human, UniProt P0DOX5 218-449 = IgG part); test: FACS of yeast-displayed Fcab wt, CD64 staining
T4 construct: also called Fcab-wt expressing cells; not shown: N-terminal Aga2 display fusion (and CH1 in vector pYD1dXFc)

B1: y-Her.C2.P4.2-9 (designed binder)
chain: EPKSCDKTHTCPPCPAPELLGGPSVFLFPPKPKDTLMISRTPEVTCVVVDVSHEDPEVKFNWYVDGVEVHNAKTKPREEQYNSTYRVVSVLTVLHQDWLNGKEYKCKVSNKALPAPIEKTISKAKGQPREPQVYTLPPSRDEYLHGDVSLTCLVKGFYPSDIAVEWESNGQPENNYKTTPPVLDSDGSFFLYSKLTVARYSPRMLRWAHGNVFSCSVMHEALHNHYTQKSLSLSPGK
EC50 [1]: 4.3 nM

B4: y-Her.C2.P4.2-3 (designed binder)
chain: B1 chain with L144A, H145S, G146N, D147T
EC50 [1]: 463 nM

B6: y-Her.C2.P4.2-4 (designed binder)
chain: B1 chain with L144S, H145D
EC50 [1]: 370 nM

B9: human soluble CD64 (receptor, UniProt P12314 16-292, looked up)
chain: QVDTTKAVITLQPPWVSVFQEETVTLHCEVLHLPGSSSTQWFLNGTATQTSTPSYRITSASVNDSGEYRCQRGLSGRSDPIQLEIHRGWLLLQVSSRVFTEGEPLALRCHAWKDKLVYNVLYYRNGKAFKFFHWNSNLTILKTNISHNGTYHCSGMGKHRYTSAGISVTVKELFPAPVLNASVTSPLLEGNLVTLSCETKLLLQRPGLQLYFSFYMGSKTLRGRNTSSEYQILTARREDSGLYWCEAATEDGNVLKRSPELELQVLGLQLPTPVWFH
notes: extracellular domain; Printed as 'human soluble CD64'; also called human CD64 (R&D Systems)
binding result (wild type Fcab): binds
binding result [6]: binds

Now from value to binder, other results behind:

EC50 [2]: 1.3 nM
EC50 [1]: 4.7 nM
B2: EF3-17 (designed binder)
chain: B1 chain with Y200H, P202R, R203T, L205W, A208G

EC50 [2]: 10.3 nM
EC50 [3]: 18.9 nM
EC50 [1]: 4.8 nM
Kd [4]: 8.6 nM
B3: H10-03-6 (designed binder)
chain: B1 chain with H145Y, A198P, Y200H, P202A, L205W
notes: also called H10-03-6 clone
ADCC: SKBR3 cell killing by NK cells (7-AAD/CFSE double positive cells), EC50 [5]: 1.1 nM

EC50 [1]: 93 nM
B5: y-Her.C2.P4.2-19 (designed binder)
chain: B1 chain with L144R, H145S, D147E

EC50 [2]: 5.2 nM
EC50 [1]: 16.1 nM
B7: ABEFs0101 (designed binder)
chain: B1 chain with H145S, G146A, R203S, L205W, A208G
notes: If read literally (148-197) a Val would be doubled
ADCC: SKBR3 cell killing by NK cells (7-AAD/CFSE double positive cells), EC50 [5]: 1 nM

EC50 [1]: 263 nM
Kd [4]: 7.5 nM
B8: H561G3M1G4 (designed binder)
chain: EPKSCDKTHTCPPCPAPELLGGPSVFLFPPKPKDTLMISRTPEVTCVVVDVSHEDPEVKFNWYVDGVEVHNAKTKPREEQYNSTYRVVSVLTVLHQDWLNGKEYKCKVSNKALPAPIEKTISKAKGQPREPQVYTLPPSRDEFFTYWVSLTCLVKGFYPSDIAVEWESNGQPENNYKTTPPVLDSDGSFFLYSKLTVDRRRWTAGNVFSCSVMHEALHNHYTQKSLSLSPGK
